Patent US20180208648A1 (SCHOLAR ROCK, published 2018)

T1: human proActivin A (human, UniProt P08476 21-426, biotinylated (immobilized on streptavidin biosensors), site not stated)
T1 construct: also called human Activin A; Inhibin-beta A pro-protein
T1 sequence: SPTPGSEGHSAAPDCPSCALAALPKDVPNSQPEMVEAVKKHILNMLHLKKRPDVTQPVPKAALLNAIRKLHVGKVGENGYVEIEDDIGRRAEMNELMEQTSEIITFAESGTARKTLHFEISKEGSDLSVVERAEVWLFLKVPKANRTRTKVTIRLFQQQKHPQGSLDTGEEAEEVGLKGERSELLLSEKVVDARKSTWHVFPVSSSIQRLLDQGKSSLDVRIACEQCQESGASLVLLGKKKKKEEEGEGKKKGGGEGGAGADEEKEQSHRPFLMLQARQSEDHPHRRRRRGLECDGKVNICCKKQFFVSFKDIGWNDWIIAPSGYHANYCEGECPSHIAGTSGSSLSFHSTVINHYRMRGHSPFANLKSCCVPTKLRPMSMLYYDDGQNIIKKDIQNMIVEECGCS

T2: human latent GDF8 (human, UniProt O14793 24-375, biotinylated (immobilized on streptavidin biosensors), site not stated)
T2 construct: also called human latent Myostatin
T2 sequence: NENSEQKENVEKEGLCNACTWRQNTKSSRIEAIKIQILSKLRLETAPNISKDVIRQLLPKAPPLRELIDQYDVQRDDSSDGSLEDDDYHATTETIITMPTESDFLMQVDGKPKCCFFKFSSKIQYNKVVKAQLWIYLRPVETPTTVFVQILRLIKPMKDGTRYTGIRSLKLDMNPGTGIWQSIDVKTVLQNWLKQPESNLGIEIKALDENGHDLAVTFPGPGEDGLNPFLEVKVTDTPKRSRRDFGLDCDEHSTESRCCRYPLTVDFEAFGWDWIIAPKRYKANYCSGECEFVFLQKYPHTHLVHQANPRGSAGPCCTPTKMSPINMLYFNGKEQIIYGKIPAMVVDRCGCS

T3: human proGDF8 (human, UniProt O14793 24-375, biotinylated, site not stated)
T3 construct: also called hu proGDF8; human proMyostatin
T3 sequence: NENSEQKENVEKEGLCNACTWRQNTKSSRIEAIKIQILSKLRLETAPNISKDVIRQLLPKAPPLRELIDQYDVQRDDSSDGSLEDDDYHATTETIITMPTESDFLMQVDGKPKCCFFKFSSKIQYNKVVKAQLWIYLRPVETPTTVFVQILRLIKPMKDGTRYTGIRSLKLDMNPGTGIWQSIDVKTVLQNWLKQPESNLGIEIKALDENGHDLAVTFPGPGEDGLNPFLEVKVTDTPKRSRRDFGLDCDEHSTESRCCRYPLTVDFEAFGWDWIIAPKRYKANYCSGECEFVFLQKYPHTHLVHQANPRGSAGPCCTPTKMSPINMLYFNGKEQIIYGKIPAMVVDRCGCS

T4: human proGDF11 (human, UniProt O95390 25-407, biotinylated (NHS-PEG4-Biotin), site not stated)
T4 sequence: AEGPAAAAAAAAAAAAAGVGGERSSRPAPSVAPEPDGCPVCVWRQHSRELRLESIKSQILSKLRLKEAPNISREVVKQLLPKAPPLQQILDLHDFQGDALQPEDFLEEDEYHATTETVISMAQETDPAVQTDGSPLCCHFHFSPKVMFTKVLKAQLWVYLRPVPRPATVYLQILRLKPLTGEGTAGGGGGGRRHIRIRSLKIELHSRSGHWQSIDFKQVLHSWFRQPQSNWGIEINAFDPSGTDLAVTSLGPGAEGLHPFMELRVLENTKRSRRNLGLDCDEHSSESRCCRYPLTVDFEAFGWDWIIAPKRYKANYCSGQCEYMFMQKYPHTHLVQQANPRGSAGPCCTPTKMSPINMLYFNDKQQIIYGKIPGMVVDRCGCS

T5: human latent GDF11 (human, UniProt O95390 25-407, biotinylated, site not stated)
T5 construct: also called hu latent GDF11
T5 sequence: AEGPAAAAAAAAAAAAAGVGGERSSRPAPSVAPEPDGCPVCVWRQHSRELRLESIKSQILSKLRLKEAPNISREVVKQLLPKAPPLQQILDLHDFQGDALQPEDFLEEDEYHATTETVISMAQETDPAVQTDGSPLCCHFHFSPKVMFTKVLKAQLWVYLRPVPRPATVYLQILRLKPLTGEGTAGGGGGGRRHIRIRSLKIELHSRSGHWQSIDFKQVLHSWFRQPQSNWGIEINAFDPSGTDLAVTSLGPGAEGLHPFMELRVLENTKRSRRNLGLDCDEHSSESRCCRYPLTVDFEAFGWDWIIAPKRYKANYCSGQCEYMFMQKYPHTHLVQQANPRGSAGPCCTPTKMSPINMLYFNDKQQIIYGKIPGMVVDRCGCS

T6: murine proGDF11 (mouse, UniProt Q9Z1W4 25-405, biotinylated, site not stated)
T6 construct: also called mu proGDF11
T6 sequence: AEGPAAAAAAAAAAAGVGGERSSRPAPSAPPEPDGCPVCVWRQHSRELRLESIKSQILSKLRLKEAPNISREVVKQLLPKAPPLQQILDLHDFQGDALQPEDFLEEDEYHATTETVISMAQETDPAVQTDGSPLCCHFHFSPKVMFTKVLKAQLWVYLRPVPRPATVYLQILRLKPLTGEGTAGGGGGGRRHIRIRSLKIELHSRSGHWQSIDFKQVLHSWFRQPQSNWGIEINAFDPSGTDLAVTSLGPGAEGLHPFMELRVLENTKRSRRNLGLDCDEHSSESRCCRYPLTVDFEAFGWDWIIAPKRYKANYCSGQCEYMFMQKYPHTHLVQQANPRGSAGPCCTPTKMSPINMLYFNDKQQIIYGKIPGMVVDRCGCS


Columns and labels:
human proActivin A = target: T1, human proActivin A; experiment: BLI (ForteBio Octet QKe), antigen on streptavidin biosensor, antibody in solution
human latent GDF8 = target: T2, human latent GDF8; experiment: as above
human proGDF8 = target: T3, human proGDF8; experiment: as above
human proGDF11 [1] = target: T4, human proGDF11; experiment: cell-based or functional assay
human latent GDF11 = target: T5, human latent GDF11; experiment: BLI (ForteBio Octet)
human proGDF11 [2] = target: T4, human proGDF11; experiment: BLI (ForteBio Octet)
murine proGDF11 = target: T6, murine proGDF11; experiment: BLI (ForteBio Octet)

| binding result (human proActivin A) | binding result (human latent GDF8) | binding result (human proGDF8) | EC50, proGDF11 activation assay at 50 nM proGDF11 (human proGDF11 [1]) [nM] | Kd (human latent GDF11) [nM] | Kd (human proGDF11 [2]) [nM] | Kd (murine proGDF11) [nM] | Binder |
| --- | --- | --- | --- | --- | --- | --- | --- |
| no binding (tested: 50 µg/mL) | no binding (tested: 50 µg/mL) | no binding (tested: 50 µg/mL) | 27.5 | 0.27 | 0.91 | 1.73 | GDF11 Inh-2 (antibody, V domains shown, also called Clone GDF11 Inh-2) VH: not shown VL: DIQMTQSPSSLSASVGDRVTITCQASQDISNYLNWYQQKPGKAPKLLIYDASNLETGVPSRFSGSGSGTDFTLTISSLQPEDVATYYCQKYSTAPLTFGGGTKVEIKR |
| no binding (tested: 50 µg/mL) | no binding (tested: 50 µg/mL) | no binding (tested: 50 µg/mL) | 26.7 | 0.31 | 1.08 | – | GDF11 Inh-4 (antibody, V domains shown, also called Clone GDF11 Inh-4) VH: QVQLVQSGAEVKKPGASVKVSCKASGYTFTSYGISWVRQAPGQGLEWMGWISAYNGNTNYAQKLQGRVTMTTDTSTSTAYMELRSLRSDDTAVYYCARTPPLWFGEYGAFDIWGQGAMVTVSS VL: DIQMTQSPSSLSASVGDRVTITCQASQDISNYLNWYQQKPGKAPKLLIYDASNLETGVPSRFSGSGSGTDFTLTISSLQPDDFATYYCQQSYTTPITFGQGTRLEIKR |
